These results are taken from PMC4321490, “Structural analysis of DNA binding by C.Csp231I, a member of a novel class of R-M controller proteins regulating gene expression”.

A word on the stoichiometry N: it is the number of molecules, sites or subunits per partner or assembly.

Series [1] has as its target C.Csp231I controller protein (Citrobacter sp. RFL231). As to the kind of experiment: crystal structure; C.Csp231I in complex with 21 bp OL or OR operator DNA duplexes; three crystal forms (P6(1) OL 2.30 Å, C2 OL 2.75 Å, P6(1) OR 1.80 Å); subunits within one protein dimer.
In series [2] the target is T1, C.Csp231I (Citrobacter sp. RFL231, UniProt Q32WH4 1-98).
T1 sequence: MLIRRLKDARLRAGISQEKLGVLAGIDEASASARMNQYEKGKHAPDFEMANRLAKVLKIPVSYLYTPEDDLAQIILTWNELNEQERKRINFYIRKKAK
As to the kind of experiment: crystal structure; C2 form, 2.75 A, two complexes per asymmetric unit; EMSA: 10 mM Tris-HCl pH 8.0, 0.1 M NaCl, 1 mM EDTA, room temperature 30 min, 2 uM DNA, 6.5% native PAGE in 0.25x TBE; AUC: same buffer, 20 C. The conditions noted are these: protein: recombinant; chain copies: 2.

Series [3] has as its target T2, C.Csp231I (two dimers) (Citrobacter sp. RFL231, UniProt Q32WH4 1-98).
T2 sequence: T1 sequence
In words: EMSA; larger complex at 4:1 and above; 2 uM DNA; EMSA: 10 mM Tris-HCl pH 8.0, 0.1 M NaCl, 1 mM EDTA, room temperature 30 min, 2 uM DNA, 6.5% native PAGE in 0.25x TBE; AUC: same buffer, 20 C. As to conditions: protein: recombinant; chain copies: 4. For orientation: A gel shift assay detects complexes by their altered migration in electrophoresis.

The target of series [4] is T1, C.Csp231I. As to the kind of experiment: EMSA; single complex up to 2:1 subunits per duplex; 2 uM DNA; EMSA: 10 mM Tris-HCl pH 8.0, 0.1 M NaCl, 1 mM EDTA, room temperature 30 min, 2 uM DNA, 6.5% native PAGE in 0.25x TBE; AUC: same buffer, 20 C. As to conditions: protein: recombinant; chain copies: 2.
In series [5] the target is T2, C.Csp231I (two dimers). As to the kind of experiment: EMSA; little effect of spacer mutation; 2 uM DNA; EMSA: 10 mM Tris-HCl pH 8.0, 0.1 M NaCl, 1 mM EDTA, room temperature 30 min, 2 uM DNA, 6.5% native PAGE in 0.25x TBE; AUC: same buffer, 20 C. The conditions noted are these: protein: recombinant; chain copies: 4.
Series [6] has as its target T1, C.Csp231I. As to the kind of experiment: EMSA; single dimer at the OL site; 2 uM DNA; EMSA: 10 mM Tris-HCl pH 8.0, 0.1 M NaCl, 1 mM EDTA, room temperature 30 min, 2 uM DNA, 6.5% native PAGE in 0.25x TBE; AUC: same buffer, 20 C. The conditions noted are these: protein: recombinant; chain copies: 2.
The target of series [7] is T1, C.Csp231I. In words: EMSA; one dimer binds; 2 uM DNA; EMSA: 10 mM Tris-HCl pH 8.0, 0.1 M NaCl, 1 mM EDTA, room temperature 30 min, 2 uM DNA, 6.5% native PAGE in 0.25x TBE; AUC: same buffer, 20 C. As to conditions: protein: recombinant; chain copies: 2.

Regarding “C.Csp231I controller protein (natural protein)”, the stoichiometry N in series [1] is 2.

B1: OL 21-mer (dsDNA)
DNA 1: ACACTAAGGAAAACTTAGTAA
DNA 2: TTACTAAGTTTTCCTTAGTGT
For the molecule B1, the binding result in series [2] is “binds”.

B2: 54-1 (native OL+OR) (dsDNA)
DNA 1: ACACTAAGGAAAACTTAGTAAAATTGCTTTTTTAAACTAAGAAAATCTTAGCAA
DNA 2: TTGCTAAGATTTTCTTAGTTTAAAAAAGCAATTTTACTAAGTTTTCCTTAGTGT
For B2, the binding result in series [3] and in series [4] was “binds” in each case.

B3: 54-3 (spacer randomized) (dsDNA)
DNA 1: ACACTAAGGAAAACTTAGTAACTGCATGCTACCAAACTAAGAAAATCTTAGCAA
DNA 2: TTGCTAAGATTTTCTTAGTTTGGTAGCATGCAGTTACTAAGTTTTCCTTAGTGT
With B3, in series [5], the binding result was “binds”.

B4: 54-2 (OR randomized) (dsDNA)
DNA 1: ACACTAAGGAAAACTTAGTAAAATTGCTTTTTTAAATAAGACTCGTTAAAAAAC
DNA 2: GTTTTTTAACGAGTCTTATTTAAAAAAGCAATTTTACTAAGTTTTCCTTAGTGT
As for B4, the binding result in series [6] is reported as “binds”.

B5: 48-1 (6 bp spacer deletion) (dsDNA)
DNA 1: ACACTAAGGAAAACTTAGTAAAATTTTAAACTAAGAAAATCTTAGCAA
DNA 2: TTGCTAAGATTTTCTTAGTTTAAAATTTTACTAAGTTTTCCTTAGTGT
As for B5, the binding result in series [7] is “binds”.
